1 substance from publication PMC9772109 can be followed below.

The target of the assay is recombinant stabilized HA trimer of H1N1 virus A/Solomon Islands/3/2006 (H1 SI06) (influenza A virus A/Solomon Islands/3/2006 (H1N1)). Briefly: cryo-EM structure.

As to “recombinant stabilized HA trimer of H1N1 virus A/Solomon Islands/3/2006 (H1 SI06) (natural protein)”, the stoichiometry N (usually the number of molecules, sites or subunits per partner or assembly) turned out to be 3.
